assay: yeast display, Sf9 membrane polyspecificity reagent, FACS + sequencing; frameworks hold sequencing errors
Summary of the method: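 Nanobodies from a synthetic yeast display library (Saccharomyces cerevisiae BJ5465), induced 36–48 hours with galactose, were stained 1 hour at 4 °C with 10% biotinylated, detergent-solubilized Sf9 membrane reagent, enriched on streptavidin microbeads, then FACS-sorted. Anti-HA (expression) and streptavidin (reagent binding) fluorescence set low and high (top ~1%) gates. Polyreactivity labels come from the gate of origin. Genes were colony-PCR amplified, MiSeq 2 × 250 sequenced and filtered by CDR length.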

Sequence | polyreactivity (PSR sort gate)
QVQLVESGGGLVQAGGSLRLSCAASGRILLYNAMGWYRQAPGKERELVAAISRSGGYTYYADSVNWRFTISRDNAKNTVYLQMNSLKPEDTAVYYCAAQHGYPRYYYWGQGTQVTVSS | high polyreactivity
QVQLVESGGGLVQAGGSLRLSCAASGRILPGYAMGWYRQAPGKERELVAAIRGNGDSTYYADSVKGRFTISRDNAKNTVYLQMNSLKPEDTAVYFCAARRVSTIARDSYRGRKYGYWGQGTQVTVSS | low polyreactivity
QVQLVESGGGLVQAGGSLRLSCAASGRILPYNVMGWYRQAPGKEWEFVAAITGSGGDTYYADSVKGRFTISRDTAKNTVYLQMNSLKPEDTAVYYCAAAPYIGGSFGQTPGSGYWGQGTQVTVSS | low polyreactivity
QVQLVESGGGLVQAGGSLRLSCAASGRILRPYAMGWYRQAPGKERELDAGITVRGGTTYYADSVKGRFTISRDNAKNTVYLQMNILKPEDTAVYYCAATDIHYGPSYIPYWYGYCGQGTQVTVSS | high polyreactivity
QVQLVESGGGLVQAGGSLRLSCAASGRILRYYAMGWYRQAPGKERELVASITSGGSTYYADSVKGRFTISRDNAKNTVSLQMNSLKPEDTAVYYCAARNSYRVDLSYYAYDYWGQGTQVTVSS | high polyreactivity
QVQLVESGGGLVQAGGSLRLSCAASGRILSSNAMGWYRQAPRKERELVAAISWSGGSTYYADSVKGRFTISRDNAKNTVYFQMNSLKPEDTAVYYCAAPFTTTFDYWGKGTQVTVSS | low polyreactivity
QVQLVESGGGLVQAGGSLRLSCAASGRILSVYAMGWYRQAPGKERELVAAIDYSGGSTNYADSVKGRFTISRDNAKNTVYLQMNSLKPEDTAVYYCNREGGAIAWRYLLEYLYSWGQGTQVTVSS | low polyreactivity
QVQLVESGGGLVQAGGSLRLSCAASGRILSVYAMGWYRQAPGKERELVAAIEYSGGSTNYADSVKVRFTISRDTSKHTVYLLMNSLLPEDTAVYYCNGEGGAIAWRYLLEYLYSWGQGTQVTVSS | low polyreactivity
QVQLVESGGGLVQAGGSLRLSCAASGRILVLNAMGWYRQAPGKERELVADITSGGSTYYADSVKGRFTISRDNAKNTVYLQMNSLKPEDTAVYYCAADLPYSLDYRSEDDYWGQGTQVTVSS | low polyreactivity
QVQLVESGGGLVQAGGSLRLSCAASGRILVPYAMGWYRQAPGKERELVDAISSGGSTKYADSVKGRFTISRDNAKNTVYLQMNSLKPEDTAVYYCASRIGSGSYPYPRYDYWGQGTQVTVSS | high polyreactivity
QVQLVESGGGLVQAGGSLRLSCAASGRILVQNDMGWYRQEPGKERELVAAIRSDGSTSYADSVKGRFTISRDNAKNTVYLQMNSLKPEDTAFYYCAARIDWTGGEYDYWGQGTQVTVSS | low polyreactivity
QVQLVESGGGLVQAGGSLRLSCAASGRILVYNTMGWSRQAPGKERELVAGIRRGGSTDYADSVKGRFTISRDNAKNTVYLQMNSLNAEDTAVYYCNARYSTGYTKLGYWGQGTQVTVSS | low polyreactivity
QVQLVESGGGLVQAGGSLRLSCAASGRILVYYAMGWYRQAPGKERELVAAIRSSGSSTYYSDSVKGRFTISRDNAKNTVYLQMNSLKPEDTAVYYCAAYYYIGGKYGSQVYEYDYWGQGTQVTVSS | low polyreactivity
QVQLVESGGGLVQAGGSLRLSCAASGRILWGYAMGWYRQAPGKERELVAAITWSTGTTSYADSVKGRFTISRDNAKNTVYLQMNSLKPEDTAVYYCARRQWRTQLVYGSRRDYWGQGTQVTVSS | low polyreactivity
QVQLVESGGGLVQAGGSLRLSCAASGRILWNAMGWYRQAPGKERELVAGITYSGGSTYYADSVKGRFTISRDNAKNTVYLQMNSLKPEDTAVYYCNAGVGARESDYWGQGTQVTVSS | low polyreactivity
QVQLVESGGGLVQAGGSLRLSCAASGRILWSYAMGWYRQAPGKEREFVATINRSGGNTHYADSVKGRFTISRDNAKNTVYLQMNSLKPEDTAVYYCAARNLVPYGYQGLRYYYWGQGTQVTVSS | high polyreactivity

Sequence | polyreactivity (PSR sort gate)
QVQLVESGGGLVQAGGSLRLSCAASGRILYIYAMGWYRQAPGKERELVASISWTDGSTYYADSVKGRFTISRDNAKNTVYLQMNSLKPEDTAVYYCNAAYYYYWDLKKYNYWGQGTQVTVSS | low polyreactivity
QVQLVESGGGLVQAGGSLRLSCAASGRILYIYAMGWYRQAPGKERELVASISWTDGSTYYADSVKGRFTISRDNAKNTVYLQMNSLKPEDTAVYYCNAAYYYYWELKKYNYWGPGTQVTVSS | low polyreactivity
QVQLVESGGGLVQAGGSLRLSCAASGRILYNYAMGWYRQAPGKERELVAAISSGGSTNYADSVKGRFTISRDNAKNTVYLQMNSLKPEDTAVYYCAAYRGHSWRGLYRWSDYDYWGQGTQVTVSS | low polyreactivity
QVQLVESGGGLVQAGGSLRLSCAASGRILYRNTMGWYRQAPGKERELVAAISRSGGSTYYADSVKGRFTISRDNAKNTVYLQMNSLKPEDTAVYYCAKSVVARGASTYIGGFYYWGQGTQVTVSS | high polyreactivity
QVQLVESGGGLVQAGGSLRLSCAASGRILYYYAMGWYRQAPGKERELVAAISWSGGSTYYADSVKGRFTISRDNAKNTVYLQMNSLKPEDTAVYYCAADWRGYRLERAYDYWGQGTQVTVSS | low polyreactivity
QVQLVESGGGLVQAGGSLRLSCAASGRILYYYDMGWYRQAPGKERELVARIGGTYYADSVKGRFTISRDNAKNTVYLQMNSLKPEDTAVYYCAAEYGYDFFRSYQEYGYWGQGTQVTVSS | low polyreactivity
QVQLVESGGGLVQAGGSLRLSCAASGRIQYNAMGWYRQAPGKEREFVAAISWSGGTTYYADSVKGRFTISRDNAKNTVYLQMNSLKPEDTAVYYCATPYTHWGQGTQVTVSS | high polyreactivity
QVQLVESGGGLVQAGGSLRLSCAASGRISGLYAMGWYRQAPGKERELVAAITTSADRTYYADSVKGRFTISRDNAKNTVYLQMNSLKPEDTAVYYCAADSSRPRMYYWGQGTQVTVSS | low polyreactivity
QVQLVESGGGLVQAGGSLRLSCAASGRISGWYAMGWYRQAPGKERELVASISSSGGSTYYADSVEGRFTISRDNAKNTVYFQMNSLKPEDTAVYYCAVRRYNWSFYRGYDYWGQGTQVTVSS | high polyreactivity
QVQLVESGGGLVQAGGSLRLSCAASGRISGYAMGWDRQAPGKERELVAAISTRGGTTYYADSVKGRFTISRDNAKNTVQLQMNSLKPEDTAVYYCNAASSRWPEYDYWGQGTQVTVSS | high polyreactivity
QVQLVESGGGLVQAGGSLRLSCAASGRISHRNAMGWYRQAPGKERELVAAITSGGSTNYADSVKGRFTISRDNAKNTVYLQMNSLKPEDTAVYYCTTTTYHWYYYRWEIFDYWGQGTQVTVSS | low polyreactivity
QVQLVESGGGLVQAGGSLRLSCAASGRISPNNVMGWYRQAPGKERELVAVISRSGDRTNYADSVKGRFTISRDNAKNTVYLQMNSLKPEDTAVYYCAARVVADKYRYDYWGQGTQVTVSS | high polyreactivity
QVQLVESGGGLVQAGGSLRLSCAASGRISQGYAMGWYRQAPGKERELVAGISRSGGSTYYADSVKGRFTISRDNAKNTVYLQMNSLKPEDTAVYYCAARVRGRNASDYDYYYWGQGSQVTVSS | high polyreactivity
QVQLVESGGGLVQAGGSLRLSCAASGRISRVYVMGWYRQAPGKERELVAAISFRGGSTFYADSVKGRFTISRDNAKNTVYLQMNSLKPEDTAVYYCAATVYPLAYDYWGQGTQVTVSS | high polyreactivity
QVQLVESGGGLVQAGGSLRLSCAASGRISSGYAMGWYRQAPGKERELVAAISSIGGRTYYADSVKGRFTISRDNAKNTVYLQMNSLKPEDTAVYYCNTYPYIQRTWWYDYWGQGTQVTVSS | high polyreactivity

Source: the nanobody polyreactivity screen of Harvey et al. (2022)
